Reference: the supplement of paper PMC9170038

Tested on: MS2 coat protein
Assay: apparent KD of MS2 coat protein; designed switch direction (-1 OFF switch, 1 ON switch): -1; higher = weaker reporter binding
In short: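 On Illumina chips, designed RNA switches with common flanks were made by stalled E. coli RNA polymerase. Titrations with SNAP-549-labelled MS2 coat protein, doubling from 0.7 or 1.5 nM to 3 µM, were done with no input, with 200 uM small-molecule ligand, or with an oligonucleotide input. Apparent KD is the median per design over clusters, from curve fits of normalised cluster fluorescence.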

[1] = Eterna round: R95, input ligand: microRNA oligo, concentration not stated
[2] = input ligand: microRNA oligo, concentration not stated
[3] = Eterna round: R95, input ligand: FMN 200 uM
[4] = Eterna round: R95, input ligand: none

Sequence | apparent KD of MS2 coat protein [1] [nM] | apparent KD of MS2 coat protein (input ligand: FMN 200 uM) [nM] | apparent KD of MS2 coat protein (input ligand: none) [nM] | apparent KD of MS2 coat protein [2] [nM] | apparent KD of MS2 coat protein [3] [nM] | apparent KD of MS2 coat protein [4] [nM]
UUCAGACAUGAGGAUCACCCAUGUGAGGAUAUGAUGCGAUCGUCGAAAGACGAUAGCAUCAGAAGGCACGUAUG [Fiskers Ex 1 - 16] (puzzle: Exclusion 1) | 97.8 |  |  |  |  | 
ACUAGAUGAGGAUAUGCAUGUUUUCGUGUUCUUCUAGAUUAACAUGAGGAUCACCCAUGUAGAAGGCGUCAUUU [Exclusion 2 - 27] (puzzle: Exclusion 2) | 76.9 |  |  |  |  | 
CUCUUAUCUUAGGAUAUUUUACCGCAAGUGGUGGGAGAAGGGAGCACAUGAGGAUCACCCAUGUUAGCUGGGCU [Eternabot (L2) Solution 19] (Eterna round: R97, puzzle: Exclusion 6) |  | 22.1 | 20.5 |  |  | 
UUUUACAUGCUGAGAUCCUACAUGAGGAUCACCCAUGUGGUCCGGUGACUUUUGUCACCGGACUUAGCUCGUCUUGU [salish99_S_TOV1_R5_100] (Eterna round: R97, puzzle: Sensor, turn-off variant 1) |  | 191 | 288 |  |  | 
CCCAGUUAGGAAGGAUAUUGUACAUGAGGAUCACCCAUGUAAUAAAUGAGGAUUUCGGGUGUCUACAAGAAGGUCCGGAUAGGC [Ostracism 13 - Jieux - Exclusion NG 2] (Eterna round: R96, puzzle: Exclusion NG 2) |  | 110 | 59.4 | 39.2 |  | 
AGAAAUGCCCAUGGCCGCAAGCUUUUUACUUGUCUUACCACAUGAGGAUCACCCAUGUGACAUGGGCUCCUUAUAAU [Oranla] (puzzle: Sensor v3, turn-off variant 2) | 7.4 |  |  |  | 15.8 | 13
ACUAGAUGAGGAUAUGCAUAUUUUCGUGUUCUUCUAGGUUAACAUGAGGAUCACCCAUGUAGAAGGCGUCUGGA [Exclusion 2 - 21] (puzzle: Exclusion 2) | 20 |  |  |  |  | 
AAGUCAUUAGGAUAUGAAUAGGGAGACAUGAGGAUCACCCAUGUUGAUAGAACGACAUGUUCAGAAGGAGUCGCUG [Eternabot (L1) Solution 45] (Eterna round: R97, puzzle: Exclusion 5) |  | 33.7 | 33 |  |  | 
CAGCUGAAAGUCAGGAUAUCUAGAGCUUCGGCUCUAGAGAAGGGACAUGAGGAUCACCCAUGUCACUCCAGCUG [BmEx4/3-A1] (Eterna round: R97, puzzle: Brourd's mod of Exclusion 4) |  | 18.9 | 18.2 |  |  | 
CCUCUAUUUGUGAGGAUAUCGAUAAAAUGGAUUGUCGAGAAGGCACAUGAGGAUCACCCAUGUAUUGAACAGCA [JR_BMEx4_Sub022] (Eterna round: R97, puzzle: Brourd's mod of Exclusion 4) |  | 231 | 40.4 |  |  | 
ACUAAUUGAGGAUAUACAAGAAUUAACAUGAGGAUCACCCAUGUUCUUAUUUGAAUUAAAGUAGAAGGCAGAAGAA [JR_Ex5_Sub063] (Eterna round: R97, puzzle: Exclusion 5) |  | 16 | 28.9 |  |  | 
AGUGUAGCAGGAUAUACAUGAGGAUCACCCAUGUUUCCGGGACCAGAGCAUCUGCCAUGUAGAAGGGCUGCCUU [Eternabot (L2) Solution 80] (Eterna round: R97, puzzle: Exclusion 3) |  | 275 | 225 |  |  | 
AGUAGUGGUAUCCGAUCCUACAUGAGGAUCACCCAUGUAGCUAGACGUGCACGCGAUGCUCGUCAGACUACCAGAUG [salish99_TOv1_r3_048] (puzzle: Sensor v3, turn-off variant 1) | 221 |  |  |  | 218 | 184
AGUACUAACACGAAAGUGUUAGUACAAUAAGCUUGUGACACAUGAGGAUCACCCAUGUCCUCAUAAGCUCGUCUUAU [salish99_TOv2_r3_046] (puzzle: Sensor v3, turn-off variant 2) | 656 |  |  |  | 23.9 | 25.6
GAGAACGUAGGAUAUACAUGAGGAUCACCCAUGUGAGGAAGGAGUAGGAAGAGUGGAAGUAGAAGGACGAAGAG [JR_Exclu3_Sub071] (puzzle: Exclusion 3) | 36.3 |  |  |  | 29.3 | 43.8
AAGAAACAUGAGGAUCACCCAUGUGAGGAUAUGACUAAGAAAAGAAAAGAAAGAAGACUCAGAAGGCACAAAGG [salish99-ex1_r3_075] (puzzle: Exclusion 1) | 54.5 |  |  |  | 68.9 | 46.8
UUUUUACAUGAAGGAUAUACUUAACAUGAGGAUCACCCAUGUGGUGUUGUGAGUGAGUGAGUUUAGUAGAAGGUCAAUUAUUUU [JMF's solution 22] (Eterna round: R96, puzzle: Exclusion NG 2) |  | 556 | 314 | 241 |  | 

Sequence | apparent KD of MS2 coat protein [1] [nM] | apparent KD of MS2 coat protein (input ligand: FMN 200 uM) [nM] | apparent KD of MS2 coat protein (input ligand: none) [nM] | apparent KD of MS2 coat protein [2] [nM] | apparent KD of MS2 coat protein [3] [nM] | apparent KD of MS2 coat protein [4] [nM]
GAGGAACAUGAGGAUCACCCAUGUAAGGAUAUGCAUAGCGAGGUAGUAGAAGGUGAAGGCAGAAGGUACACGGA [JR_Exclu1_Sub076] (puzzle: Exclusion 1) | 34.2 |  |  |  | 31.3 | 43.8
GCGUCGAGUGUGAGGAUAUGCUGGUCCUUGGAUCAGCAGAAGGCACAUGAGGAUCACCCAUGUGAAUACGAUGC [JL bmx4 3.14] (puzzle: Brourd's mod of Exclusion 4) | 21.2 |  |  |  |  | 
AGCUAGAUAGGAUAUGCCCGGGAUAACAUGAGGAUCACCCAUGUGACCGAAUCAAAUCCAGCAGAAGGGUUUGGGA [Mod of ViennaUCT 13 - Jieux - Exclusion 5] (Eterna round: R97, puzzle: Exclusion 5) |  | 22 | 18.6 |  |  | 
UUUGCAAGCUUUAGAUCCCACAUGAGGAUCACCCAUGUUGCUGCCGUGAGGUAGCAUUUAACUAAUGCUCGUCUUAU [JL TOV1 3.48] (Eterna round: R97, puzzle: Sensor, turn-off variant 1) |  | 109 | 169 |  |  | 
GCACGGUUGGUAGGAUAUCAUUGCGAUUAGCUAUGAGAAGGACCACAUGAGGAUCACCCAUGUCCUCUAAUUAGCCUACCGUGC [Eli exng1 - 015] (Eterna round: R96, puzzle: Exclusion NG 1) |  | 383 | 151 | 109 |  | 
AGCAAGCAAUAGGAUAUGCCUGCAAGCUUGCACGCAGAAGGAUUGACUUGAGGAUCACCCAAGUGGGCUCCAAA [Xemaesti] (Eterna round: R97, puzzle: Exclusion 6) |  | 356 | 83.6 |  |  | 
GGUGGACAUGAGGAUCACCCAUGUGAGGAUAUCGGCUGGCUAGCGGCGGAUGGCUUCUCGAGAAGGCGCAUUGU [Exclusion 1 V82] (puzzle: Exclusion 1) | 67.7 |  |  |  |  | 
AGUUGGUCAGGAUAUUCUAUUAAUUACAUGAGGAUCACCCAUGUGAAUGGACAAGGGUGUGAAGAAGGGACUGGCG [Omei Ex5 A17c] (Eterna round: R97, puzzle: Exclusion 5) |  | 692 | 1780 |  |  | 
CAGUACUGAGGAUAUACAUGAGGAUCACCCAUGUGUGUGAGAAUUGUGUGGUUGUUUUGUAGAAGGCGGUGCUG [JR_Ex3_Sub032] (Eterna round: R97, puzzle: Exclusion 3) |  | 326 | 346 |  |  | 
CUUUUGUGAGGAUAUCAGUAGUUAAAUAAUAAAAUUACUACUGAGAAGGCACAUGAGGAUCACCCAUGUUCCUC [Mat - Exclusion 4 - Mod of Salish - D70] (Eterna round: R96, puzzle: Exclusion 4) |  | 274 | 40 | 35.1 |  | 
UUUUUCAGGCCAGAUCCUCACAUGAGGAUCACCCAUGUGCUCGUCUGUUUUCGCACUAUCUUUUUUUUGUUAGUGCU [Level Boss var2-14] (puzzle: Sensor v3, turn-off variant 1) | 22.7 |  |  |  | 287 | 322
UAGAUACAUGAGGAUCACCCAUGUGAGGAUAUGAGUCAGUCACGGUGACGUGGCUGACUCAGAAGGCACAAAGG [Mat - Exclusion 1 - JL Mod - D36] (Eterna round: R97, puzzle: Exclusion 1) |  | 365 | 202 |  |  | 
UGUAGAUCUACGCUUGCGUGGAUCUGCUUAGCAAGUGAUACAUGAGGAUCACCCAUGUCCUCAUUUGCUCGUCUUAU [JL turnoff v2 99.01] (puzzle: Sensor v3, turn-off variant 2) | 212 |  |  |  | 15.7 | 14
GCAAGCUUAGGAUAUACAUGAGGAUCACCCAUGUCGUGAAUUUCGAUGCUUAAUGGCGGUAGAAGGAGGCUUGA [Eternabot (L2) Solution 12] (Eterna round: R97, puzzle: Exclusion 3) |  | 31.2 | 18.8 |  |  | 
AAGUAGUGUGUGAGGAUAUUGGUGGAAUGACACAUUAAGAAGGCACAUGAGGAUCACCCAUGUGGGUAGACACG [Brourd's EX4 #21] (Eterna round: R97, puzzle: Brourd's mod of Exclusion 4) |  | 335 | 27.8 |  |  | 
CUAGCGAAUGUAGGAUAUCGGACUGUUUCAGUCUGAGAAGGACAUGAGGAUCACCCAUGUGUAGCUACGUGAGUAGCACGCUAG [JL ENG1 3.89] (Eterna round: R96, puzzle: Exclusion NG 1) |  | 58.7 | 27.5 | 16.1 |  | 
UCUAUGAUGCGAGGAUAUCGACCAUUCCUCUUUACAUGAGGAUCACCCAUGUUCGUACGCUACAACGAGAAGGCGCACUAAGAU [JR_ExcNG2_Sub059] (Eterna round: R96, puzzle: Exclusion NG 2) |  | 438 | 194 | 101 |  | 
